B1: mRNA-splicing (parent)
chain: AGUUGCUGCUGGGAGCUCCAGCACAGUGAAAUGGACAGAAGGGCAGAGCAA

Variants of: B1
Test: exon inclusion enrichment index; higher = more inclusion; WT1 exon 5 minigene, HEK293

Variant | exon inclusion enrichment index
G5A U7C G8A U10C A25U | 2.57
G5U G8U C9U U10A G11A | 0.0324
C6A U7A C9A U10A A14C | 0.774
G5U G8U C9U A20C G21C | 0.0207
G5C C6A U7C G8A U10A C44A | 0.477
C6A U7A C9A U10A A29C | 0.513
G5C C6A U7C G8A U10A G34A | 0.0333
G5C C6A U7C G8A U10A A39G | 0.0326
G5C C6G U7C U10C U32G | 0.601
G5U G8U C9U A23G C24G | 0.604
C6A G8U C9A U10C | 0.728
G5A C6U U7A G8U C9A A20U G21A | 0.0106
C6A U7G G8U C9A U10A | 0.0118
C6A U7G G8U C9A U10C | 0.407
G5C C6U G8C C9U U10C A30U A31C | 1.95
G5C C6U G8C C9U U10C A30U A31U | 1.52
U4C G5U C6A U7C G8A U10A | 0.501
C6A U7C C9A U10C G26A U27G | 3.54
C6A U7A C9A U10A G43U C44G | 0.238
G2C G5A C6U U7A G8U C9A | 0.0726
G5A U7C G8A U10C G28U A29U | 0.443

Variant | exon inclusion enrichment index
G5A C6G U7G C9A G34C A35U | 0.00103
G43C C44A | 0.932
G5C C6G U7C U10C A23U C24A | 2.3
C6A U7A C9A U10A G26A U27A | 0.813
C6A U7C C9A U10C A29U A30U | 1.98
G5U G8U C9U A25G G26A | 0.765
G5C C6A U7C G8A U10A A23U | 0.0425
G5U G8U C9U G26A U27G | 0.338
G5A C6G U7G C9A C36A A37C | 0.00188
G5A U7C G8A U10C | 2.53
C6A U7C C9A U10C C24G A25U | 3.51
U3A U4A G5C C6G U7C U10C | 3.05
G2A U3A G5C C6G U7C U10C | 3.39
C6A U7A C9A U10A A47U G48U | 0.748
G5A C6U G8A U10C | 0.819
C6A U7A C9A U10A A39G A40G | 0.0665
G5A C6A U7A C9A U10A | 0.214
C6A U7C C9A U10C U27C | 5.2
G5C C6U U7C C9U U10C | 3.09
G5A C6G U7G C9A G41C G42U | 0.0271
G5C C6U G8C C9U U10C C24G | 2.4

Variant | exon inclusion enrichment index
C6A U7C C9A U10C G42C G43A | 3.52
G5A C6U U7A G8U C9A G38A A39G | 0.0704
G5U G8U C9U C18G C19U | 0.00531
C6A U7A C9A U10A A45U | 1.14
G5A C6U U7A G8U C9A A40C | 0.241
C24A A25G | 0.315
G5A C6U U7A G8U C9A G33U G34U | 0.0031
C6A U7A C9A U10A G34U A35U | 0.0771
C6A U7C C9A U10C U32A G33C | 3.5
C6A U7C C9A U10C A47G G48U | 0.925
C6A U7C C9A U10C A47G G48C | 1.71
G5A C6U U7A G8U C9A U27C | 0.399
G5A C6G U7G C9A A45U G46A | 0.00219
G5U G8U C9U U32A | 0.11
G5A U7C C9A | 2.07
C6A U7A C9A U10A A29U A30U | 0.198
G5C C6G | 0.0268
G5C C6U G8C C9U U10C G13C A14U | 1.35
G5C C6A U7C G8A U10A U17A C18G | 0.0895
G5U G8U C9U G11U | 0.144
G5U G8U C9U G41C | 0.706

Variant | exon inclusion enrichment index
G5A C6G U7G C9A G43A C44U | 0.00188
G5C C6U G8C C9A U10G | 0.812
G5C C6G U7C U10C C24U A25G | 4.57
G5C C6U G8C C9U U10C C24U A25G | 3.05
G5U G8U | 1.33
G5C C6A U7C G8A U10A G26U U27C | 0.613
G5A C6G U7G C9A G46U A47C | 0.0165
U3G U4A | 0.0184
G5C C6U G8C C9U U10C G42C G43C | 2.72
C6A U7A C9A U10A G11U G12C | 2.55
C22G A23U | 0.496
G5A C6G U7G C9A G26U U27A | 0.00104
G5C C6U G8C C9U U10C G11A G12U | 0.314
G5A C6G U7G C9A G28U A29C | 0.000797
G5A C6U U7A G8U C9A A37U G38C | 0.0673
G5C C6G U7C U10C C18U C19G | 2.78
U4A C6U G8C C9U U10C | 0.0827
C6A U7A C9A U10A A47G G48C | 0.251
G5C C6U G8C C9U U10C A25G G26A | 4.14
G5C C6A U7C G8A U10A G34C A35C | 0.0037
G5A U7C G8A U10C A30G | 2.36

From the RNAGym collection of RNA variant scans (doi:10.1101/gr.219683.116)
